Positions count from the first letter of the chain named.
B1: 59C1 (antibody, human IgG1, kappa, V domains shown)
VH: QVQLKESGPDLVKPSQSLSLTCTVTGYSITSGYGWNWIRQFPGNKLEWMGYIHFSGSTNYNPSLKSRISITRDTSKNQFFLQLNSVTTEDTATYYCARSGKGNAMDYWGQGTSVTVSS
VL: DIQMTQSPSSLTVTAGEKVTMSCKSSQSLLNSGNQKNYLTWYQQKPGQPPKLLIYWASTRESGVPDRFTGSGSGTDFTLTVINMQAEDLALYYCQNDYYFPFTFGSGTKLEIKR
B2: 51H10 (antibody, human IgG1, kappa, V domains shown)
VH: EVQLQQSVPELVKPGASVRMSCKASGYTFTKYIIQWVKQKPGQGLEWIAYINPYNDDTKYNEKFKGKATLTSDKSASTAYMELSSLTSEDSAVYYCATTYYGNSFPNWGQGTLVTVSA
VL: DIVMTQSPSSLTVTAGERVTMTCKSSQSLLNSGNQKNYLTWYQQKPGQPPKLLIYWASTRESGVPDRFTGSGSGTDFTLTISSLQSEDLAVYFCQNDYSFPFTFGSGTKLEIKR
B3: 3G3 (antibody, human IgG1, kappa, V domains shown)
VH: QVQLQQSGPQLVRPGASVKISCKASGYSFTTYWMHWVKQRPGQGLEWIGLIDPSDSETRLNQKFKDKATLTVDKSSSTAYMRLSSPTSEDSAVYYCASNRWLLGWGQGTLVTVSS
VL: B2 VL with V3Q, T5I, R18K, T22S, L84V, S86T, F93Y, F100Y, F102L, S106A
B4: Positive control antibody Zmab (zolbetuximab) (antibody, human IgG1, kappa, V domains shown)
VH: QVQLQQPGAELVRPGASVKLSCKASGYTFTSYWINWVKQRPGQGLEWIGNIYPSDSYTNYNQKFKDKATLTVDKSSSTAYMQLSSPTSEDSAVYYCTRSWRGNSFDYWGQGTTLTVSS
VL: B2 VL with R18K, T22S, L84V, S86A, F93Y, F100Y
B5: 38F8 (antibody, human IgG1, kappa, V domains shown)
VH: EVQLVESGGGLVKPGGSLKLSCAASGFSFSDYGMHWVRQAPEKGLEWIAYINSGSRTLYYADTVKGRFTISRDNAKNTLFLQMTSLRSEETAMYYCTRNAYYGNAMDYWGQGTSVTVSS
VL: DIQMTQSPSSLTVTAGEKVTMSCKSSQSLLNSGNQRNYLTWYQQIPGQPPKLLIYWSSTRGSGVPDRFTGSGSGTDFTLTISSVQAEDLAVYFCQNVYYYPFTFGSGTRLEVKR
B6: 14A5 (antibody, human IgG1, kappa, V domains shown)
VH: QVQLKESGPGLVAPSQSLSITCSVSGFSLNSYGVGWVRQPPGKGLEWLGVIWGDGSTNYHSVLISRLSIRKDNSKSQVFLKLNSLQTDDTATYYCAMITRGNAMDYWGQGTSVTVSS
VL: DIVMTQSPSSLTVTAGEKITMSCKSSQSLLNSGNQRNYLTWYQQKPGQTPKLLIYWASTRKSGVPDRFTGSGSGTDFTLTISSVQAEDLAVYSCQNNYLFPLTFGAGTKLELKR
B7: 69H9 (antibody, human IgG1, kappa, V domains shown)
VH: EVQLQQSGPELMKPGASVKISCKATGYSFSSYNIHWVKQSHGKSLEWIGYIAPFNGDSRYNQKFKGKATVTVDKSSSTAYMHLSSLTSEDSAVYYCGRLNRGNSLDYWGQGTSLTVSS
VL: B6 VL with I19V, L30F, T49P, K61E, V91F, S93Y, L99I, F100Y
B8: Hz69H9 (antibody, human IgG1, kappa, V domains shown)
VH: QVQLVQSGAEVKKPGSSVKVSCKASGYSFSSYNIHWVRQAPGQGLEWMGYIAPFQGDSRYNQKFKGRVTITADKSTSTAYMELSSLRSEDTAVYYCARLNRGNSLDYWGQGTLVTVSS
VL: DIVMTQSPDSLAVSLGERATINCKSSQSLFNSGNQRNYLTWYQQKPGQPPKLLIYWASTRESGVPDRFSGSGSGTDFTLTISSLQAEDVAVYYCQNNYIYPLTFGGGTKVEIKR
B9: 46F6 (antibody, human IgG1, kappa, V domains shown)
VH: QVQLKESGPGLVAPSQSLSITCTVSGFSLTDYGVSWIRQPPGKGLEWLGVMWGGGNTYYNSALKSRLSISKDNSKSQVFLKMNSLQSDDTAMYYCAKQRYGGNAMDYWGQGTSVTVSS
VL: DIQMTQSPSSLTVTAGEKVTMSCKSSQSLLNSGNQRNYLTWYQQIPGQPPKLLIYWASTRESGVPNRFTGSGSGAEFTLTISSVQTEDLAVYYCQNSYFYPFTFGAGTKLELKR
B10: HB37A6 (fully human antibody) (antibody, human IgG1, kappa, V domains shown)
VH: EVQLLDSGGGLVQPGGSLRLSCAASGFTFSSYVMSWVRQAPGKGLNWVSTISHSGGSTYYADSVKGRFTISRDNSKNTLYLQMNSLRAEDTAVYYCAIDAPYYDILTGYRYWGQGTLVTVSS
VL: not shown
B11: HB37A6 (antibody secreted by the hybridoma, culture supernatant) (antibody, V domains shown)
VH: B10 VH
VL: not shown
B12: 25C7 (antibody, human IgG1, kappa, V domains shown)
VH: EVMLVESGGGLVQPGGSRKLSCAASGFTFSDYGMAWVRQAPGKGPEWVAFINNLAYSIYYVDTVTGRFTISRENAKDTLYLEMSSLRSEDTALYYCARFTTGNVMDYWGQGTSVTVSS
VL: DIVMTQSPSSLTVTAGEKVTMTCKSSQSLLNGGNQKNYLTWYQQKPGQPPKLLIYWSSTRESGVPDRFTGSGSGTDFTLTITSVQAEDLAVYYCQNSYSYPLTFGSGTKLELKR

How the values were obtained:
[1] = molecular target: T1, human Claudin18.2 protein (P50251802, GenScript) (human, UniProt P56856-2 1-261, limits assumed); test: BLI (Fortebio Octet Red96), AHC sensor, antibody and human Claudin18.2 protein (GenScript)
T1 construct: also called human CLDN18.2
Description: The equilibrium dissociation constant (KD) for binding of the antibodies of the present invention to human CLDN18.2 was determined by bio-layer interferometry (BLI). A BLI affinity assay was conducted according to the existing method (Estep, P et al., High throughput solution based measurement of antibody-antigen affinity and epitope binding. MAbs, 2013.5(2): p. 270-8). The AHC (18-5060, Fortebio) sensor was soaked in SD buffer (lx PBS, BSA 0.1%, Tween-20 0.05%). 100 μL of SD buffer, each antibody and human Claudin18.2 protein (P50251802, GenScript) were added to a 96-well black polystyrene half-area microplate (Greiner, 675076), respectively. The detection was performed using Fortebio Octet Red96, and the KD values were analyzed using Fortebio Octet analysis software.

[2] = molecular target: T2, human CLDN18.2 on cells (CHO-hCLDN18.2, HEK293-hCLDN18.2, KATO III-hCLDN18.2, DAN-G-hCLDN18.2, NUGC-4) (human, UniProt P56856-2 1-261); test: flow cytometry (FACS) on CHO-hCLDN18.2 cells, MFI against Log[Conc.(nM)]; EC50 from the table under the plot
T2 construct: whole, on cells; NUGC-4 is used untransfected; also called human Claudin18.2
Description: (§1) The binding of each of the above 9 antibodies to the CHO-S cell lines stably transfected with human CLDN18.2 and human CLDN18.1 (i.e., CHO-hCLDN18.2 and CHO-hCLDN18.1 prepared as described in the Examples) obtained in Example 1 was determined by flow cytometry (FACS). Reference was made to Example 2 for the experimental methods. The experimental data were analyzed using GraphPad Prism software, and FIGS. 1 and 2 were obtained.

[3] = molecular target: T3, human CLDN18.1 on cells (CHO-hCLDN18.1) (human, UniProt P56856 1-261); test: flow cytometry (FACS) on CHO-hCLDN18.1 cells
T3 construct: whole, on cells; also called human Claudin18.1
Description: as §1

[4] = molecular target: T2, human CLDN18.2 on cells (CHO-hCLDN18.2, …); test: flow cytometry (FACS) on CHO-hCLDN18.2 cells, MFI against Log[Conc.(nM)]; EC50 from the table under the plot; remark: listed apart in the source
Description: as §1

[5] = molecular target: T2, human CLDN18.2 on cells (CHO-hCLDN18.2, …); test: as above; remark: listed apart in the source
Description: as §1

[6] = molecular target: T2, human CLDN18.2 on cells (CHO-hCLDN18.2, …); test: flow cytometry (FACS) on DAN-G-hCLDN18.2 cells, MFI against Log[Conc (nM)]; EC50 from the table under the plot
Description: (§2) Referring to Example 4, the binding of the two antibodies to each of the gastric cancer cell line NUGC-4, the gastric cancer cell line KATO III-hCLDN18.2 and the pancreatic cancer cell line DAN-G-hCLDN18.2 was determined by FACS.

[7] = molecular target: T1, human Claudin18.2 protein (P50251802, …); test: SPR (Biacore T200), human Claudin18.2 amine-coupled to the chip, antibody 0-100 nM in the mobile phase, 1:1 model
Description: According to the manufacturer's instructions, human Claudin18.2 (GenScrip, P50251802) was coupled to the surface of a CMS chip (GE Healthcare, 29-1496-03) using the amino coupling kit (GE Healthcare, BR-1006-33), and the remaining activation sites were blocked by injection of 1 M ethanolamine after coupling. According to the manufacturer's instructions, the binding and dissociation between the antigen on the chip surface and antibodies in the mobile phase were determined by Biacore (GE Healthcare, T200) to obtain affinity and kinetic constants. The antibodies (0-100 nM) after gradient dilution flowed over the chip surface in an order from low to high concentrations, with the binding time of 180 s and the dissociation time of 600 s. Finally, the chip was regenerated using 10 mM Glycine pH 1.5 (GE Healthcare, BR-1003-54). Kinetic analysis of the data results were performed using Biacore T200 analysis software with a 1:1 binding model.

[8] = molecular target: T2, human CLDN18.2 on cells (CHO-hCLDN18.2, …); test: flow cytometry (FACS) on the gastric cancer cell line NUGC-4, MFI against Log[Conc(nM)]; EC50 from the table under the plot
Description: as §2

[9] = molecular target: T2, human CLDN18.2 on cells (CHO-hCLDN18.2, …); test: flow cytometry (FACS) on KATO III-hCLDN18.2 cells, MFI against Log[Conc(nM)]; EC50 from the table under the plot
Description: as §2

[10] = molecular target: T3, human CLDN18.1 on cells (CHO-hCLDN18.1); test: flow cytometry, hybridoma supernatant on CHO-hCLDN18.1

Binder	Kd [1] [nM]	EC50 [2] [nM]	binding result [3]	further results
B1	1.01	5.7	no binding	
B2	1.9	7.51	no binding	
B3	2.8	9.75	no binding	
B4	2.14	3.46		EC50 [4]: 3.12 nM; EC50 [5]: 3.31 nM
B5	1.03		no binding	EC50 [5]: 5.88 nM
B6	0.529	5.49	no binding	
B7	0.946		no binding	EC50 [4]: 5.36 nM
B8				EC50 [6]: 1.79 nM; Kd [7]: 0.299 nM; koff [7]: 0.000116 s⁻¹; kon [7]: 387000 M⁻¹ s⁻¹; EC50 [8]: 2.2 nM; EC50 [9]: 3.25 nM
B9	0.732		no binding	EC50 [4]: 5.41 nM
B10	0.326		no binding	EC50 [6]: 0.958 nM; Kd [7]: 0.72 nM; koff [7]: 0.000306 s⁻¹; kon [7]: 425000 M⁻¹ s⁻¹; EC50 [8]: 1.08 nM; EC50 [9]: 0.569 nM; EC50 [5]: 5.51 nM
B11				binding result [10]: no binding
B12	1.46	13.6	no binding	
